We go through two proteins from patent US20060241020.

Series [1] concerns the target T1, AEGELpYGSLYA (Sap1 example phosphopeptide).
T1 chain: AEGELYGSLYA

The target of series [2] is all the clones tested (PTP-Sap1 clones as GST-peptides in the dephosphorylation assay).
In series [3] the target is T2, EFpYGAFA (Sap1 example phosphopeptide, A form of EFpYGAFA/G).
T2 chain: EFYGAFA

Series [4] has as its target T3, EFpYGAFG (Sap1 example phosphopeptide, G form of EFpYGAFA/G).
T3 chain: EFYGAFG

In series [5] the target is the GST-peptide (PTP-β clone as GST fusion in the dephosphorylation assay).

B1: PTP-Sap1 wild type (GST fusion of the catalytic domain) (protein)
chain: LKRRNKKKQQKPELRDLVFSSPGDIPAEDFADHVRKNERDSNCGFADEYQQLSLVGHSQSQMVASASENNAKNRYRNVLPYDWSRVPLKPIHEEPGSDYINASFMPGLWSPQEFIATQGPLPQTVGDFWRLVWEQQSHTLVMLTNCMEAGRVKCEHYWPLDSQPCTHGHLRVTLVGEEVMENWTVRELLLLQVEEQKTLSVRQFHYQAWPDHGVPSSPDTLLAFWRMLRQWLDQTMEGGPPIVHCSAGVGRTGTLIALDVLLRQLQSEGLLGPFSFVRKMRESRPLMVQTEAQYVFLHQCILRFLQQSAQAPAEKEVPYEDVENLIYENVAAIQAHKLEV
For the protein B1, the Km entry in series [1] is “Km=7.6 uM”; in series [3] it was “Km=7.0 uM”; in series [4], “Km=7.0 uM”. Moreover, the “dephosphorylation assay on GST-PEP constructs” value in series [2] is recorded as “Dephosphorylation assays showed a conserved enzymatic activity for all the clones tested (not shown)”.

B2: PTP-β wild type (GST fusion of the catalytic domain) (protein)
chain: RQKVSHGRERPSARLSIRRDRPLSVHLNLGQKGNRKTSCPIKINQFEGHFMKLQADSNYLLSKEYEELKDVGRNQSCDIALLPENRGKNRYNNILPYDATRVKLSNVDDDPCSDYINASYIPGNNFRREYIVTQGPLPGTKDDFWKMVWEQNVHNIVMVTQCVEKGRVKCDHYWPADQDSLYYGDLILQMLSESVLPEWTIREFKICGEEQLDAHRLIRHFHYTVWPDHGVPETTQSLIQFVRTVRDYINRSPGAGPTVVHCSAGVGRTGTFIALDRILQQLDSKDSVDIYGAVHDLRLHRVHMVQTECQYVYLHQCVRDVLRARKLRSEQENPLFPIYENVNPEYHRDPVYSRH
In the case of B2, in series [5], the “dephosphorylation assay on GST-PEP constructs” value is “the dephosphorylation of the GST-peptide was weak (not shown) as compared to the same experiment on PTP-Sap1”.
